T1: MtrA (Mycobacterium tuberculosis H37Rv, UniProt P9WGM7 1-228)
T1 sequence: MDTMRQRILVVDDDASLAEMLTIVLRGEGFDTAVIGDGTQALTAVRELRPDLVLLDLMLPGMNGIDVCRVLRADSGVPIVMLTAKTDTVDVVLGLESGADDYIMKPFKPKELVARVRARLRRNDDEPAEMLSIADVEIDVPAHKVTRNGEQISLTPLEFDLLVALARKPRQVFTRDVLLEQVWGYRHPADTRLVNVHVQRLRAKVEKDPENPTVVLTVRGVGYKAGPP

B1: Rv3859c G20T (dsDNA)
DNA 1: GTTACGTGATCGAATTGTGTTCCAGG
DNA 2: CCTGGAACACAATTCGATCACGTAAC
B2: Rv3859c G20A T21A (dsDNA)
DNA 1: GTTACGTGATCGAATTGTGAACCAGG
DNA 2: CCTGGTTCACAATTCGATCACGTAAC
B3: Rv3859c G20A T21G (dsDNA)
DNA 1: GTTACGTGATCGAATTGTGAGCCAGG
DNA 2: CCTGGCTCACAATTCGATCACGTAAC
B4: Rv3859c G20C (dsDNA)
DNA 1: GTTACGTGATCGAATTGTGCTCCAGG
DNA 2: CCTGGAGCACAATTCGATCACGTAAC
B5: Rv3859c G20A (dsDNA)
DNA 1: GTTACGTGATCGAATTGTGATCCAGG
DNA 2: CCTGGATCACAATTCGATCACGTAAC
B6: Rv3859c G20A T21C (dsDNA)
DNA 1: GTTACGTGATCGAATTGTGACCCAGG
DNA 2: CCTGGGTCACAATTCGATCACGTAAC

Each binder was assayed against T1, MtrA (assay: BLI). Conditions: protein: recombinant; tags: His6 (pET28a, BamHI/XhoI; N-terminal, inferred from stop codon in reverse primer); chain copies: 2; blunt.

Compared with B1, B2 is 220-fold lower in Kd: 4380 µM for the first, 19.5 µM for the second.

Going from B3 to B4, the Kd rises from 15.7 µM to 7120 µM (450-fold).

B5 and B6 are within 1.5-fold of each other in Kd: 0.178 µM for the first, 0.124 µM for the second.

From article PMC10609481, “Substrate DNA Promoting Binding of Mycobacterium tuberculosis MtrA by Facilitating Dimerization and Interpretation of Affinity by Minor Groove Width”
